# Test results as given in publication PMC7954794, “Protein context shapes the specificity of SH3 domain-mediated interactions in vivo” (Nature Communications, 2021).
# B1: YIL033C (protein, UniProt P07278 2-416, looked up)
# cAMP-dependent protein kinase …: VSSLPKESQAELQLFQNEINAANPSDFLQFSANYFNKRLEQQRAFLKAREPEFKAKNIVLFPEPEESFSRPQSAQSQSRSRSSVMFKSPFVNEDPHSNVFKSGFNLDPHEQDTHQQAQEEQQHTREKTSTPPLPMHFNAQRRTSVSGETLQPNNFDDWTPDHYKEKSEQQLQRLEKSIRNNFLFNKLDSDSKRLVINCLEEKSVPKGATIIKQGDQGDYFYVVEKGTVDFYVNDNKVNSSGPGSSFGELALMYNSPRAATVVATSDCLLWALDRLTFRKILLGSSFKKRLMYDDLLKSMPVLKSLTTYDRAKLADALDTKIYQPGETIIREGDQGENFYLIEYGAVDVSKKGQGVINKLKDHDYFGEVALLNDLPRQATVTATKRTKVATLGKSGFQRLLGPAVDVLKLNDPTRH
# B2: ABP1 A3A (protein, UniProt P15891 2-592, looked up)
# Actin-binding protein: ALEPIDYTTHSREIDAEYLKIVRGSDPDTTWLIISPNAKKEYEPESTGSSFHDFLQLFDETKVQYGLARVSPPGSDVEKIIIIGWCPDSAPLKTRASFAANFAAVANNLFKGYHVQVTARDEDDLDENELLMKISNAAGARYSIQTSSKQQGKASTPPVKKSFTPSKSPAPVSKKEPVKTPSPAPAAKISSRVNDNNDDDDWNEPELKERDFDQAPLKPNQSSYKPIGKIDLQKVIAEEKAKEDPRLVQKPTAAGSKIDPSSDIANLKNESKLKRDSEFNSFLGTTKPPSMTESSLKNDDDKVIKGFRNEKSPAQLWAERKAKQNSGNAETKAEAPKPEVPEDEPEGEPDVKDLKSKFEGLAASEKEEEEMENKFAPPPKKSEPTIISPKPFSKPQEPVKAEEAEQPKTDYKKIGNPLPGMHIEADNEEEPEENDDDWDDDEDEAAQPPLPSRNVASGAPVQKEEPEQEEIAPSLPSRNSIPAPKQEEAPEQAPEEEIEEEAEEAAPQLPSRSSAAPPPPPRRATPEKKPKENPWATAEYDYDAAEDNELTFVENDKIINIEFVDDDWWLGELEKDGSKGLFPSNYVSLGN
# modifications: synonymous A3A codon
# B3: ABP1 N27N (protein, UniProt P15891 2-592, looked up)
# Actin-binding protein: B2 Actin-binding protein
# modifications: synonymous change N27N in SH3 domain
# B4: ABP1 E29E (protein, UniProt P15891 2-592, looked up)
# Actin-binding protein: B2 Actin-binding protein
# modifications: synonymous codon change E29E
# B5: ABP1 L37L (protein, UniProt P15891 2-592, looked up)
# Actin-binding protein: B2 Actin-binding protein
# modifications: synonymous codon change L37L in SH3
# B6: ABP1 K42K (protein, UniProt P15891 2-592, looked up)
# Actin-binding protein: B2 Actin-binding protein
# modifications: synonymous codon K42K
# B7: ABP1 T4T (protein, UniProt P15891 2-592, looked up)
# Actin-binding protein: B2 Actin-binding protein
# modifications: synonymous T4T codon change
# B8: ABP1 I25I (protein, UniProt P15891 2-592, looked up)
# Actin-binding protein: B2 Actin-binding protein
# modifications: synonymous codon change I25
# B9: ABP1 S45S (protein, UniProt P15891 2-592, looked up)
# Actin-binding protein: B2 Actin-binding protein
# modifications: synonymous S45S codon change in SH3 domain
# B10: ABP1 G44G (protein, UniProt P15891 2-592, looked up)
# Actin-binding protein: B2 Actin-binding protein
# modifications: synonymous codon change G44G
# What was measured:
# Format in all cases: cell-based, Saccharomyces cerevisiae
# [1] = system: BBC1; assay: DHFR-PCA on solid medium, bait BBC1 (Fig. 1B); settings: bait BBC1, label = prey; 2-4 replicates
# From the text: (§1) Supplement 41467_2021_21873_MOESM8_ESM.xlsx, sheet "Fig1B" | column: medsize; medrep; Ratio; Score
# [2] = system: 575 putative partners (preys) of 22 WT SH3-containing proteins; assay: DHFR-PCA on solid medium, WT and SH3-deleted baits (Fig. 1B); design: key to Score: 0: SH3-independent; 1: SH3-dependent PPIs; 2: SH3-inhibited PPIs
# Outline: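 Interactions scored by DHFR protein-fragment complementation on solid medium using robotic pinning; preys (DHFR F[3] fusions) arrayed in duplicate with control borders. Baits carried C-terminal DHFR F[1,2]-FLAG tags, tested as wild type and as SH3-deleted versions carrying a flexible Gly/Ser stuffer.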
# [3] = system: ABP1; assay: DHFR-PCA on solid medium, bait ABP1 (Fig. 1B); settings: bait ABP1, label = prey; 2-4 replicates
# From the text: as §1
# [4] = system: BEM1-2; assay: DHFR-PCA on solid medium, bait BEM1-2 (Fig. 1B); settings: bait BEM1-2, label = prey; 2-8 replicates
# From the text: as §1
# [5] = system: BOI2; assay: DHFR-PCA on solid medium, bait BOI2 (Fig. 1B); settings: bait BOI2, label = prey; 3-8 replicates
# From the text: as §1
# [6] = system: BUD14; assay: DHFR-PCA on solid medium, bait BUD14 (Fig. 1B); settings: bait BUD14, label = prey; 4 replicates
# From the text: as §1
# [7] = system: BZZ1-1; assay: DHFR-PCA on solid medium, bait BZZ1-1 (Fig. 1B); settings: bait BZZ1-1, label = prey; 4 replicates
# From the text: Supplement 41467_2021_21873_MOESM8_ESM.xlsx, sheet "Fig1B" | column: medsize; medrep; Score
# [8] = system: BOI1; assay: DHFR-PCA on solid medium, bait BOI1 (Fig. 1B); settings: bait BOI1, label = prey; 3-8 replicates
# From the text: as §1
# [9] = system: BEM1-1; assay: DHFR-PCA on solid medium, bait BEM1-1 (Fig. 1B); settings: bait BEM1-1, label = prey; 2-8 replicates
# From the text: as §1
# [10] = system: Lsb3; assay: Deep mutational scanning of Abp1 SH3, Abp1-Lsb3 DHFR-PCA (DMS score); settings: for LSB3_MTX2 (frequency normalized to the reference condition): Abp1 SH3 amino acid mutation; for LSB3_MTX2 (frequency normalized to the reference condition) / LSB3_MTX2 (frequencies normalized to the reference condition): MTX2; for LSB3_MTX2 (frequencies normalized to the reference condition) / LSB3_MTX2: Abp1-Lsb3 DHFR-PCA, frequencies normalized to the reference condition; for LSB3_MTX2: amino acid level; for LSB3_MTX2 = frequencies normalized to the reference condition: Lsb3, MTX2, amino acid format
# Outline: (§2)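 Each SH3 position is mutated to all possible codons within endogenous ABP1; the pooled strains are crossed to DHFR F[3]-tagged partners, diploids are enriched in NAT/HPH media, and two 72 h complementation selections at 30 °C follow, with Illumina counts of the locus yielding the score.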
# [11] = system: Hua2 and Lsb3; assay: Deep mutational scanning quadrant of Abp1 SH3 (Hua2 and Lsb3 DMS scores); settings: class of mutation by HUA2 and LSB3 DMS scores
# [12] = system: Hua2; assay: Deep mutational scanning of Abp1 SH3, Abp1-Hua2 DHFR-PCA (DMS score); settings: for HUA2_MTX2 (frequency normalized to the reference condition): Abp1 SH3 amino acid mutation; for HUA2_MTX2 (frequency normalized to the reference condition) / HUA2_MTX2 (frequencies normalized to the reference condition): MTX2; for HUA2_MTX2 (frequencies normalized to the reference condition) / HUA2_MTX2: Abp1-Hua2 DHFR-PCA, frequencies normalized to the reference condition; for HUA2_MTX2: amino acid level; for HUA2_MTX2 = frequencies normalized to the reference condition: Hua2, MTX2, amino acid format
# Outline: as §2
# [13] = system: Hua2 and Lsb3; assay: Deep mutational scanning of Abp1 SH3: combined class (quadrant) from Abp1-Hua2 and Abp1-Lsb3 DHFR-PCA; settings: class by DMS scores with Hua2 and Lsb3 (Neutral, Dest. both, Dest. Hua2, Dest. Lsb3)
# [14] = system: Hua2 and Lsb3; assay: Deep mutational scanning of Abp1 SH3, quadrant classification from Hua2 and Lsb3 DMS scores; settings: class from hua2sc and lsb3sc
# [15] = system: Hua2 and Lsb3; assay: Deep mutational scanning of Abp1 SH3, quadrant by Hua2 and Lsb3 DMS scores
# [16] = frequencies scaled to the synonymous mutation distribution, LSB3 prey
# [17] = frequencies scaled to the synonymous mutation distribution, HUA2 prey
# [18] = Lsb3, frequencies scaled to the synonymous mutation distribution (DMS score)
# [19] = Hua2, frequencies scaled to the synonymous mutation distribution (DMS score)
# [20] = Abp1-Lsb3, frequencies scaled to the synonymous mutation distribution (DMS score)
# [21] = Abp1-Hua2, frequencies scaled to the synonymous mutation distribution (DMS score)
molecule,measurement,setting,value
B1,"medrep (log2 median colony size normalized to plate background, PCA score)",[1],2.137
same,"medrep (log2 median colony size normalized to plate background, PCA score)","[2]; bait SLA1-3, DHFR-PCA, label = prey, Replicates 4 (2 for YCR009C, YDR388W, YIL033C)",2.8
same,Score,"[2]; bait SLA1-3, label = prey",0
same,"medrep (log2 median colony size normalized to plate background, PCA score)",[3],3.25
same,"medrep (log2 median colony size normalized to plate background, PCA score)",[4],1.8558
same,"medrep (log2 median colony size normalized to plate background, PCA score)",[5],1.723
same,"medrep (log2 median colony size normalized to plate background, PCA score)",[6],1.967
same,"medrep (log2 median colony size normalized to plate background, PCA score)",[7],2.099
same,"medrep (log2 median colony size normalized to plate background, PCA score)",[8],2.0471
same,"medrep (log2 median colony size normalized to plate background, PCA score)",[9],1.8558
B2,LSB3_MTX2 (frequency normalized to the reference condition),[10]; LSB3 prey,1.292
same,lsb3sc (DMS score),[10]; [16],-0.2087
same,quadrant,[11],Neutral
same,HUA2_MTX2 (frequency normalized to the reference condition),[12]; HUA2 prey,1.172
same,hua2sc (DMS score),[12]; [17],-0.4405
B3,LSB3_MTX2 (frequencies normalized to the reference condition),[10],1.694
same,lsb3sc (DMS score),[10]; [18],0.1932
same,quadrant,[13],Neutral
same,HUA2_MTX2 (frequencies normalized to the reference condition),[12],1.61
same,hua2sc (DMS score),[12]; [19],-0.002773
B4,LSB3_MTX2 (frequencies normalized to the reference condition),[10],1.788
same,lsb3sc (DMS score),[10]; [18],0.2879
same,quadrant,[13],Neutral
same,HUA2_MTX2 (frequencies normalized to the reference condition),[12],1.834
same,hua2sc (DMS score),[12]; [19],0.2208
B5,lsb3sc (DMS score),[10]; [20],0.2222
same,LSB3_MTX2,[10],1.722
same,hua2sc (DMS score),[12]; [21],-0.0161
same,HUA2_MTX2,[12],1.597
same,quadrant,[14],Neutral
B6,lsb3sc (DMS score),[10]; [20],0.08611
same,LSB3_MTX2,[10],1.586
same,hua2sc (DMS score),[12]; [21],-0.1876
same,HUA2_MTX2,[12],1.425
same,quadrant,[14],Neutral
B7,LSB3_MTX2 (frequency normalized to the reference condition),[10]; LSB3 prey,1.639
same,lsb3sc (DMS score),[10]; [16],0.1386
same,quadrant,[11],Neutral
same,HUA2_MTX2 (frequency normalized to the reference condition),[12]; HUA2 prey,1.763
same,hua2sc (DMS score),[12]; [17],0.1499
B8,LSB3_MTX2 (frequencies normalized to the reference condition),[10],1.319
same,lsb3sc (DMS score),[10]; [18],-0.181
same,quadrant,[13],Neutral
same,HUA2_MTX2 (frequencies normalized to the reference condition),[12],1.723
same,hua2sc (DMS score),[12]; [19],0.1101
B9,LSB3_MTX2 = frequencies normalized to the reference condition,[10],1.916
same,lsb3sc = Frequencies scaled to the synonymous mutation distribution (DMS score),[10]; Lsb3,0.4157
same,quadrant,[15],Neutral
same,HUA2_MTX2 = frequencies normalized to the reference condition,[12],1.852
same,hua2sc = Frequencies scaled to the synonymous mutation distribution (DMS score),[12]; Hua2,0.2394
B10,LSB3_MTX2 = frequencies normalized to the reference condition,[10],1.253
same,lsb3sc = Frequencies scaled to the synonymous mutation distribution (DMS score),[10]; Lsb3,-0.247
same,quadrant,[15],Neutral
same,HUA2_MTX2 = frequencies normalized to the reference condition,[12],1.505
same,hua2sc = Frequencies scaled to the synonymous mutation distribution (DMS score),[12]; Hua2,-0.1077
